Measurements reported in the DeepSol protein solubility set.

experiment: soluble on expression in E. coli; label from the status in PepcDB or PDB records

Sequence | soluble on expression in E. coli
SAEGDYYTLGNRQRIPRDPFREQSLASRFMDDDFGLPPFPNELSMDWPGWARPRLSHRLDAPWTGSLRSGFPRASMSSPQGFSSVYTESPRRASAPPTDSDEPWKVCVNVHSFKPEELNVKTKDGFVEVSGKHEEKQDEGGIVTKNFTKKIQIPLDVDPVTVFASLSPEGVLIIEARQTPPYYLYSNEMPAESMEEPEARPQEPSMTSTTTFEARE | soluble
SAENHCELLPPAPSGLGAGLGGGLCRRCSAGMGALAQRPGGVSKWVRLNVGGTYFLTTRQTLCRDPKSFLYRLCQADPDLDSDKDETGAYLIDRDPTYFGPVLNYLRHGKLVINKDLAEEGVLEEAEFYNITSLIKLVKDKIRERDSRISQMPVKHVYRVLQCQEEELTQMVSTMSDGWKFEQLVSIGSSYNYGNEDQAEFLCVVSKELHNTPYGTTSEPSEKAKILQERGSRM | soluble
SAGNAEPPPAGAACPQDRRSCSGRAGGDRVWEDGEHPAKKLKSGGDEERREKPPKRKIVLLMAYSGKGYHGMQRNVGSSQFKTIEDDLVSALVRSGCIPENHGEDMRKMSFQRCARTDKGVSAAGQVVSLKVWLIDDILEKINSHLPSHIRILGLKRVTGGFNSKNRCDARTYCYLLPTFAFAHKDRDVQDETYRLSAETLQQVNRLLACYKGTHNFHNFTSQKGPQDPSACRYILEMYCEEPFVREGLEFAVIRVKGQSFMMHQIRKMVGLVVAIVKGYAPESVLERSWGTEKVDVPKAPGLGLVLERVHFEKYNQRFGNDGLHEPLDWAQEEGKVAAFKEEHIYPTIIGTERDERSMAQWLSTLPIHNFSATALTAGGTGAKVPSPLEGSEGDGDTD | soluble
SAGRGKLIAVIGDEDTVTGFLLGGIGELNKNRHPNFLVVEKDTTINEIEDTFRQFLNRDDIGIILINQYIAEMVRHALDAHQRSIPAVLEIPSKEHPYDAAKDSILRRAKGMFTAEDLR | soluble
SANEAYPCPCDIGHRLEYGGLGREVQVEHIKAYVTKSPVDAGKAVIVIQDIFGWQLPNTRYIADMISGNGYTTIVPDFFVGQEPWDPSGDWSIFPEWLKTRNAQKIDREISAILKYLKQQCHAQKIGIVGFCWGGTAVHHLMMKYSEFRAGVSVYGIVKDSEDIYNLKNPTLFIFAENDVVIPLKDVSLLTQKLKEHCKVEYQIKTFSGQTHGFVHRKREDCSPADKPYIDEARRNLIEWLNKYM | soluble
SANSGCKDVTGPDEESFLYFAYGSNLLTERIHLRNPSAAFFCVARLQDFKLDFGNSQGKTSQTWHGGIATIFQSPGDEVWGVVWKMNKSNLNSLDEQEGVKSGMYVVIEVKVATQEGKEITCRSYLMTNYESAPPSPQYKKIICMGAKENGLPLEYQEKLKAIEPNDYTGKVSEEIEDIIKKGETQTL | soluble
SAPPLLSLPLCILPPGSGSPRLVCYCERDSGGDGDRDDFNLYVTDAAELWSTCFSPDSLARLKARFGLSGAEDIHSRFRAACQQQAVTVSLQEDRALITLSGDTPALAFDLSKVPSPEAAPRLQALTLSLAEHVCNLERRLAAAEETITSPKKNTQPAGTQFLPELDHQRGSSGPGVRRRCPGESLINPGFKSKKPAAGVDFDET | soluble
SAPVEHVVADAGAFLRHAALQDIGKNIYTIREVVTEIRDKATRRRLAVLPYELRFKEPLPEYVRLVTEFSKKTGDYPSLSATDIQVLALTYQLEAEFVGVSHLKQEPQKVKVSSSIQHPETPLHISGFHLPYKPKPPQETEKGHSACEPENLEFSSFMFWRNPLPNIDHELQELLIDRGEDVPSEEEEEEENGFEDRKDDSDDDGGGWITPSNIKQIQQELEQCDVPEDVRVGCLTTDFAMQNVLLQMGLHVLAVNGMLIREARSYILRCHGCFKTTSDMSRVFCSHCGNKTLKKVSVTVSDDGTLHMHFSRNPKVLNPRGLRYSLPTPKGGKYAINPHLTEDQRFPQLRLSQKARQKTNVFAPDYIAGVSPFVENDISSRSATLQVRDSTLGAGRRRLNPNASRKKFVKKR | soluble
SASATAPAAAVPTLASPLEQLRHLAEELRLLLPRVRVGEAQETTEEFNREMFWRRLNEAAVTVSREATTLTIVFSQLPLPSPQETQKFCEQVHAAIKAFIAVYYLLPKDQGITLRKLVRGATLDIVDGMAQLMEVLSVTPTQSPENNDLISYNSVWVACQQMPQIPRDNKAAALLMLTKNVDFVKDAHEEMEQAVEECDPYSGLLNDTEENNSDNHNHEDDVLGFPSNQDLYWSEDDQELIIPCLALVRASKACLKKIRMLVAENGKKDQVAQLDDIVDISDEISPSVDDLALSIYPPMCHLTVRINSAKLVSVLKKALEITKASHVTPQPEDSWIPLLINAIDHCMNRIKELTQSELEL | soluble
SASVEGDDDFGSSSSRSYQDQLYTELWKVCAGPLVEVPRAQERVFYFPQGHMEQLVASTNQGINSEEIPVFDLPPKILCRVLDVTLKAEHETDEVYAQITLQPEEDQSEPTSLDPPIVGPTKQEFHSFVKILTASDTSTHGGFSVLRKHATECLPSLDMTQATPTQELVTRDLHGFEWRFKHIFRGQPRRHLLTTGWSTFVSSKRLVAGDAFVFLRGENGDLRVGVRRLARHQSTMPTSVISSQSMHLGVLATASHAVRTTTIFVVFYKPRISQFIVGVNKYMEAIKHGFSLGTRFRMRFEGEESPERIFTGTIVGSGDLSSQWPASKWRSLQVQWDEPTTVQRPDKVSPWEIEPFLATSPISTPAQQPQSKCKRSRPIEPSVKTPAPPSFLYSLPQSQDSINASLKLFQDPSLERISGGYSSNNSFKPETPPPPTNCSYRLFGFDLTSNSPAPIPQDKQPMDTCGAAKCQEPITPTSMSEQKKQQTSRSRTKVQMQGIAVGRAVDLTLLKSYDELIDELEEMFEIQGQLLARDKWIVVFTDDEGDMMLAGDDPWNEFCKMAKKIFIYSSDEVKKMTTKLKISSSLENEEYGNESFENRSRG | not soluble
SATALSEEELDNEDYYSLLNVRREASSEELKAAYRRLCMLYHPDKHRDPELKSQAERLFNLVHQAYEVLSDPQTRAIYDIYGKRGLEMEGWEVVERRRTPAEIREEFERLQREREERRLQQRTNPKGTISVGVDATDLFDRYDEEYEDVSGSSFPQIEINKMHISQSIEAPLTATDTAILSGSLSTQNGNGGGSINFALRRVTSAKGWGELEFGAGDLQGPLFGLKLFRNLTPRCFVTTNCALQFSSRGIRPGLTTVLARNLDKNTVGYLQWRWGIQSAMNTSIVRDTKTSHFTVALQLGIPHSFALISYQHKFQDDDQTRVKGSLKAGFFGTVVEYGAERKISRHSVLGAAVSVGVPQGVSLKVKELEKQRESAATDVLQKKQEAESAVRLMQESVRRIIEAEESRMGLIIVNAWYGKFVNDKSRKSEKVKVIDVTVPLQCLVKDSKLILTEASKAGLPGFYDPCVGEEKNLKVLYQFRGVLHQVMVLDSEALRIPKQSHRIDTDG | soluble
SDERHKTDIAPISDKVLDAWEKVKFYQYKFKDAVDEKGEEARYHFGVIAQQIVKVFEDEGLSAFDYGLVGYDEWEATEDEYDSEGNLVEKGREAGNIYSIRPTECQWLEMACMRRKLERLSLEHHHHHH | soluble
SDLFTDGDIFQDIVDAACKRRVPVYIILDEAGVKYFLEMCQDLQLTDFRIRNIRVRSVTGVGFYMPMGRIKGTLSSRFLMVDGDKVATGSYRFTWSSSHVDRNLLLLLTGQNVEPFDTEFRELYAISEEVDLYRQLSLAGRVGLHYSSTVARKLINPKYALVSGCRHPPGEMMRWAARQQWEAGGNPEGQEEGASGGESAWRLESFLKDLVTVEQVLPPVEPIPLGELSQKDGRMVSHMHRDLKPKSREAPSRNGMGEAARGEAAPARRFSSRLFSRRAKRPAAPNGMASSVSTETSEVEFLTGKRPNENSSADISGKTSPSSAKPSNCVIS | soluble
SDPVVLSYMDSLLRQSDVSLLDPPSWLNDHIIGFAFEYFANSQFHDCSDHVSFISPEVTQFIKCTSNPAEIAMFLEPLDLPNKRVVFLAINDNSNQAAGGTHWSLLVYLQDKNSFFHYDSHSRSNSVHAKQVAEKLEAFLGRKGDKLAFVEEKAPAQQNSYDCGMYVICNTEALCQNFFRQQTESLLQLLTPAYITKKRGEWKDLIATLAKK | soluble
SDSTAGTDAVAVGGTFQFHSPDGKMEIFYDEADRQQLPDIGGDSLMEEGTQINLSDFENQVVILNAWGQWCAPCRSESDDLQIIHEELQAAGNGDTPGGTVLGINVRDYSRDIAQDFVTDNGLDYPSIYDPPFMTAASLGGVPASVIPTTIVLDKQHRPAAVFLREVTSKDVLDVALPLVDEA | soluble
SEAAETEAEAAALEVLAEVAGILEPVGLQEEAELPAKILVEFVVDSQKKDKLLCSQLQVADFLQNILAQEDTAKGLDPLASEDTSRQKAIAAKEQWKELKATYREHVEAIKIGLTKALTQMEEAQRKRTQLREAFEQLQAKKQMAMEKRRAVQNQWQLQQEKHLQHLAEVSAEVRERKTGTQQELDGVFQKLGNLKQQAEQERDKLQRYQTFLQLLYTLQGKLLFPEAEAEAENLPDDKPQQPTRPQEQSTGDTMGRDPGVSFKAVGLQPAGDVNLP | soluble
SEASFVQTTMALGLPSKKASSRNVIVERRNLITVCRFSVKTLLEKYTAEPIDDSSEEFVNFAAILEQILSHRFKACAPAGPASWFSSDGQRGFWDYIRLACSKVPNNCVSSIENMENISTARAKGRAWIRVALMEKRMSEYITTALRDNRTTRRFYDSGAIMLREEATVLTGMLIGLSAIDFSFCLKGEVLDGKTPVVIDYTPYLKFTQSYDYLTDEEERHSAESSTSEDNSPEHPYLPLVTDEDSWYNKWHKMEQKFRIVYAQKGYLEELVRLRESQLKDLEAENRRLQLQLEEAAAQNQREKRELEGVILELQEQLPDPPPPPRTGLIPGDHAPLAQGSKELTTSLVNQWPSLSTLHRPEGASNSKLYRRHSFMSTEPLSAEASLSSDSQRLGEAKRDEEPWGPIGSSEPN | not soluble
SEDHQHVPIDIQTSKLLDWLVDRRHCSLKWQSLVLTIREKINAAIQDMPESEEIAQLLSGSYIHYFHCLRILDLLKGTEASTKNIFGRYSSQRMKDWQEIIALYEKDNTYLVELSSLLVRNVNYEIPSLKKQIAKCQQLQQEYSRKEEECQAGAAEMREQFYHSCKQYGITGENVRGELLALVKDLPSQLAEIGAAAQQSLGEAIDVYQASVGFVCESPTEQVLPMLRFVQKRGNSTVYEWRTGTEPSVVERPHLEELPEQVAEDAIDWGDFGVEAVSEGTDSGISAEAAGIDWGIFPESDSKDPGGDGIDWGDDAVALQITVLEAGTQAPEGVARGPDALTLLEYTETRNQFLDELMELEIFLAQRAVELSEEADVLSVSQFQLAPAILQGQTKEKMVTMVSVLEDLIGKLTSLQLQHLFMILASPRYVDRVTEFLQQKLKQSQLLALKKELMVQKQQEALEEQAALEPKLDLLLEKTKELQKLIEADISKRYSGRPVNLMGTSL | soluble
SEDKKKKRSPKPCLTQQAQAPGTLRRVPVPTSHSGSLALGLPHLPSPKQRAKFKRAGKEKCRPVLAGGGGGSAGTPLQHSFLTEVTDVYEMEGGLLNLLNDFHSGRLQAFGKECSFEQLEHVREMQEKLARLHFSLDVCGEEEDEEEEEDGVTEGLPEEQKKTMADRNLDQLLSNLEDLSNSIQKLHLAENAEPEDQPAA | soluble
